Results: the DeepSol protein solubility set

Assay: soluble on expression in E. coli; label from the status in PepcDB or PDB records

With “MDDSMDYPDRDGDDLDQFQGTARSQVVQNQPHDEEVNLSESESFAGADEPPAAPRDASLIESHDMDEGPAAPARTLSPTGYEAGKHAPGGIANSDEAPPGAYNAQEYKHLNVGEDVRELFSYIGRYKPQTVELDTRIKPFIPDYIPAVGGIDEFIKVPRPDTKPDYLGLKVLDEPAAKQSDPTVLTLQLRQLSKEAPGAKADMVGRLEHTDENKAKKIQQWIASINDIHKAKPAATVNYSKRMPEIEALMQEWPPEVETFLKTMHMPSGDVELDIKTYARLVCTLLDIPVYDDPVESLHVLFTLYLEFKNNPIFRQHMEMENKLDGMSGGGGGMMGGGADVLGL” as the sequence, how does the “soluble on expression in E. coli” value read?
Its value is “not soluble”.

With “MTSTTPLEPERWTPHATVATIVEKDGKFLLVEEKRLINSQGDFGIVYNQPAGHVDEGESIMAAAIRETLEETRWQVKLKHLVGIYIFTAPANNVTYHRYCFAAEATVHQAESQLDDGILDAKWLSWEEIQQLDNLRSPLVKRCIKDHIDGKHYPLDVIYEYADHEHTDDENKSQELEDRND” as the sequence, how does the “soluble on expression in E. coli” value read?
Its value is “soluble”.

With “TVRLMVDLRHHAAMLEEENDERTRAEQKLAETNVFLNSVVDGVAEPMVVVGLDRRVIMTNRAARDFFQISDVGSDEACHRLIHHRDTPCVREEGMQCPLLDVRTAKRPVIATQEHRDRSGDKRVVEVMTSPLLGSD” as the sequence, how does the “soluble on expression in E. coli” value read?
Its value is “not soluble”.

For “MSEADQALVGPKADEPSPPAEEKDEGGGKEAAADAAPGPSASFRLMVTRREPAVKLQYAVSGLEPLSWSEDHRVSVSTARSVAVLELICDVHNPGQDLVIHRTSVPAPLNSCLLKVGSKTEVAECKEKFASSKDPTISQTFMLDRMFNPEGKALPPMRGFKYTSWSPMGCDANGRCLLAALTMDNRLTVQVNLNRLQWVQLVDLTEIYGDRLYETSYRLSKNEAPEGNLGDFAEFQRRHSMQTPVRMEWSSICTTQQVKHNNECRDVSS”, which “soluble on expression in E. coli” value is on record?
The value was “not soluble”.

Which “soluble on expression in E. coli” value does the source give for “AGQFGTDYNAAIKVDTQTEFCGYVGTKGSSSVAAMFVEGNEVDSLSAGDKAIIVLGETPFYAESGGQCGDAGEIRTEAGVFRVEDTQKLGNAIAHHGVMAEGVLAKGDEVATIVDAERRAAISLN” here?
The value was “not soluble”.

Which “soluble on expression in E. coli” value does the source give for “GAVETLQGKAATGELLEKSVNTIRFLAIDAVEKANSGHPGLPMGCAPMGHVLYDEVMRYNPKNPYWFNRDRFVLSAGHGCMLQYALLHLAGYDSVKEEDLKQFRQWGSRTPGHPENFETPGVEVTTGPLGQGIANAVGLALAEKHLAARFNKPDSEIVDHYTYVILGDGCQMEGIANEACSLAGHWGLGKLIAFYDDNHISIDGDTEIAFTEDVSTRFEALGWHTIWVKNGNTGYDDIRAAIKEAKAVTDKPTLIKVTTTIGFGSPNKANSYSVHGSALGAKEVEATRQNLGWPYDTFFVPEDVKSHWSRHTPEGAALEADWNAKFAEYEKKYADDAATLKSIITGELPTGWVDALPKYTPESPGDATRNLSQQCLNALANVVPGLIGGSADLASSNMTLLKMFGDFQKDTAEERNVRFGVREHGMGAICNGIALHSPGFVPYCATFFVFTDYMRGAMRISALSEAGVIYVMTHDSIGLGEDGPTHQPIEHLVSFRAMPNILMLRPADGNETAGAYKVAVLNRKRPSILALSRQKLPHLPGTSIEGVEKGGYTISDNSTGNKPDLIVMGTGSELEIAAKAADELRKEGKTVRVVSFVSWELFDEQSDEYKESVLPAAVTARISIEAGSTLGWQKYVGAQGKAIGIDKFGASAPAGTIYKEYGITVESIIAAAKSF” here?
Its value is “soluble”.

With “MGSDKIHHHHHHMYQKGVSTREIGHFIEKILGHSYSASTISQVTDVVTEDITQWQQRPLKKRYSVLYLDGTYLKLRREDVANEVVYLVVGVTEEGYREILGFYVGGQESANGWRNILLDLYSRGLEEVLLGVFDGLAGLEEAMKAVYPKADVQRCVVHKVRNALHAVRKKDQPAVAQDFKPIYQANTYEEAKNRFKEFKENWQKRYPKVVATWEKDLDVLLTFLSYPSTIRPMIYTTNIIERTMKEIKKRTKTMNSLPNEKAAEKIVYLQAIDYNERWATRRLRGFGEAYEALQEMFKQRYSGP” as the sequence, how does the “soluble on expression in E. coli” value read?
Its value is “not soluble”.

For “MGSDKIHHHHHHVTSEIKRGVSLYSYQNETFQGKMTLEDCIRTSAELGAKGIEIIGEQTFWGWPECGVAQADVDTWHRLIKQYDCTPVSHDFMLDYKRYKGREMPFDEQVASVKNDVDFGARLGMKYIRALVSIAPEVLVAAAPYAEEKGIKILIEVHAPLHFDHPWIIRHAEAFEKSGSDALGFLPDMGMFLFAFPPVWKEKFLRIGVPKNIADYVEKAYEDRVLSEYVILNVQQMGGTGPAIAMAETLRHNAAFEPRRMLDYMHRIHNVHGKFYQMNEDYVEPSIPYDEIVKVLKQGGFNGYICSEYEGNRWIEDAEEPDSVEQVRRQQVMLARLLGETEVPTIQTSPTASAMAEAAA”, which “soluble on expression in E. coli” value is on record?
Its value is “not soluble”.

Which “soluble on expression in E. coli” value does the source give for “MSLGIRGLDLSDLFVSGASYKRLGSEEMMRSTFQKLDREIAAIFLGLSDGTISKAIEYSKVRTAFDHPLKDYSPIFDDLVSLKMEIDVLRFYLYGSGDEYSRALIKIKAKDLSLRATRVSLQTHGGYGYIHDFGIEKYYRDAMALSVYFGQDKYENMVLSDHIFGEAGGEGHHHHHH” here?
Its value is “not soluble”.

For “RAGYWEWNVENGTILIDRQWAVISGYNSADFDMLTMEQWRELCHPADLGVVTKSIEELLDGSMERLELELRVRHKNGEWIRVLDCGKVTGRSK”, which “soluble on expression in E. coli” value is on record?
The value was “not soluble”.

For “MSTQFKLPLASPLTHGREDFAVSPSNGEAVARLDAWPDWAEGRLVLVGPAGCGKSHLARAWAAAAGAVVVEAANPDAASVDLSALRGRAVLVEDADRRAQGAAVSDEALFHILNMAGVDGGTVLLTGRTAPLTWSAEVADLRSRLNALSVAEIAEPDDAVLEAVLRRAFAAAWWKPEPDLYPYLLARLPRSAAEAQAAAALLAEAAADGRRELTKALAREVLEGFEGDEGLEHHHHHH”, which “soluble on expression in E. coli” value is on record?
Its value is “not soluble”.

Which “soluble on expression in E. coli” value does the source give for “MGSDKIHHHHHHMRKWISYPHREGTISRQAHADFPAEAIYEREVGRSGFFGPATHLHHKHPPTAWSAWEGPLRPRAYDLNELPHGTPAPWDAPLVLHNAQCKLRIWRCDQAMTQLSRNADGDDLLFIHGGSGELFCDYGHLSYRDGDYILVPRSTSWRIEPASPTTMLLIETSNGAYQLPEKGLVGPHAIFDEAVLDVPAIDDAFKAQQTEDEWQVVIKRRGALSTVTYPYNPLDAIGWHGNLSVARVNWRDIRPLMSHRYHLPPSAHTTFVADGFVICTFVPRPIESDPGALKVPFYHNNDDYDEVIFYHAGDFFSRDNIKPGMLTFHPAGFTHGPHPKAFAKAMTDPKTFTDEVAVMIDARDALEQGPGLAGVEWQGYVDSWKPKQA” here?
The value was “not soluble”.

With “MLVRLGYVAMTMNLKDSSPSGTVTVKTLAGLNEDETRLNKLRKVTAANLHNTLRILRYNKAYNISVYRFTSKLVPLATHPMVSHWDYVGEFRNEFKSLGDFVKENNFRVSAHPDHYTLLNSPSKEVFEASVRDLDYHVKLFEAMGLEDYKYKLVMHIGGLYKNKQTSVERFKENYAILPDRIRKRLIFENDDKIYTARDVLDICKELKVPMVLDVHHHNCVNNGERLEDMLKEIFDTWKDEYFPPKIHFSTPKSKENFRSHADEIDVNEFYRFLQIAKKLKKDFDVMIEAKNKDNALFKLSRELKTFDDIRWIDEGHFEIR” as the sequence, how does the “soluble on expression in E. coli” value read?
Its value is “not soluble”.

With “GPHMSVSESAVFAYESSVHSTNVLLSLNDQRKKDVLCDVTVLVEGQRFRAHRSVLAACSSYFHSRIVGQTDAELTVTLPEEVTVKGFEPLIQFAYTAKLILSKDNVDEVCRCVEFLSVHNIEESCFQFLKFKFLDSTS” as the sequence, how does the “soluble on expression in E. coli” value read?
Its value is “soluble”.

Which “soluble on expression in E. coli” value does the source give for “MGSDKIHHHHHHMHVSLDTMVDTLKAAAESSRLRILALLSRGDLTVSDLTEILGQSQPRVSRHLKLLLEAGLIDRYQEGSWAFFRLSDADSARDFVMGLVSSIRGADPQVERDLERLASVKRKRQDRAAEYFSVNAASWDHIRSLHVPDRAVEAAMLKLVGKRPFQSMLDLGTGTGRLLEIFSPLYRRGVGIDMSREMLTVARANLDKAGVSNAQVRQGDIFSPPVERDAFDLVTIHQVLHYLDDPARAIHEAARLLRPSGRLVIVDFAPHTLEFLREEHAHMRLGFSDRQIGEWFAEAGLDLEDAQEFEPRGGSEPRLTVKLWLGRDRRLLIADPANDSQQTKVNSIGEIA” here?
Its value is “not soluble”.

Which “soluble on expression in E. coli” value does the source give for “TNLFHTYQYGKETMRGGSELTLKQSGAPTDQVTHENKSGLDKAYITQWSYGIGETWSLLIPDIKGGSSGYLGYDEKVMETVNPSYAQAIARMNRYWGDQP” here?
Its value is “not soluble”.

With “MYKDYPAAYQVSKGAALQVDTAFYERLRANAQQRTLVEQFEVPIRTGRAWKVKAGQVFRVTTPAGPQVGDFNVWNAHDPRERLWAARTRQLQGAHVSTHDRLWSNLPFLRPLVTITDDSLASYGIDEHGGRLHDLLGTRCDPYVKKMLTGEDFHHHCHSNLTRAVLPHGLTEFDVHDVLNIFQCTGLNHDDMYFMKACPAQKGDYLEFFAEIDLLCALSTCPGGDLSLPMWGPDAQDPLSVCRPLGVEIYNLDAALLEGWQSPERAAYNGLHGLQIAKVDWEKLEHHHHHH” as the sequence, how does the “soluble on expression in E. coli” value read?
Its value is “not soluble”.

For “MKANANAFYAINGNSVIDFKESSKAKDVCEFLGRIKEENEYDPIVVLDNSKTHHADITIKKAKQLDITLVFLPPYSPDLNPIEFIWKSVRKEILKEFIESVTQLRDLIKNEYMKLAKSKSFANNWMKIFDEQIKSVMNSLEHHHHHH”, which “soluble on expression in E. coli” value is on record?
Its value is “not soluble”.

Which “soluble on expression in E. coli” value does the source give for “MFFIKDLSLNITLHPSFFGPRMKQYLKTKLLEEVEGSCTGKFGYILCVLDYDNIDIQRGRILPTDGSAEFNVKYRAVVFKPFKGEVVDGTVVSCSQHGFEVQVGPMKVFVTKHLMPQDLTFNAGSNPPSYQSSEDVITIKSRIRVKIEGCISQVSSIHAIGSIKEDYLGAI” here?
The value was “soluble”.

For “MGSDKIHHHHHHMSMDKELITAQALAEALHLSVETIWRYTREKKIPCIELGNKQYRYKKDDVIKALSNGSIQESASSYETQEPRKLTYQDYLLLPEEPGYHFEILDGMLIKEPAPNVLHQRVSRRLQRILEDYFWKVDPKGEVFDAPLDVTLHDVNVVQPDLLYVASEQEVIVKDTRIDGPPMLVVEIMSPSTSRKDRLQKRRIYQEARVEHYWLVNPQEKMLECFAWRDGVYALVAGGMEEELVEHPDFPGLSIALRALWNREI”, which “soluble on expression in E. coli” value is on record?
Its value is “not soluble”.

With “MSLYTYIDLFAGPGGLCTGFKNAGFKPLIAVEMSDNTVKTYARNHEAEVYSLQELLENKGRLEEILNINTDNTCLIHGDIRLVDNDIIVEILQKKFKTNSVDVVAGGPPCESFSLAGKRIDGDERDDLFKNMLRIASISNSKFIFFENVPGLLTKKSNNIKVFDVIVEEFDNYGYNLASTDKNIIKCLAADYGVPQNRERVFLIGINKMYGENPYIYPEKTHGEGRKFEYISVSDALRYLPELNSGEGADIQQITYNFEEDFRKGKISEAVYNYLKFIAGKEGYIPPHIKESIDDGLIEIHKAVKHREKMINRMSYIKQGEGMKKAAERLINEGKEDIVRAYFPNKLYAARNRRLKANEPSFTVTSHCLDEMVHPYNNRGLTPREAARLQSFPDWYVFEGEYVKFHSDPQQDKYEQCGDAIPVLLVKALAEQLKIALNIVSERTSINEGHHHHHH” as the sequence, how does the “soluble on expression in E. coli” value read?
Its value is “not soluble”.

With “MGKYQPSFQTKKGWTEVICGPMFSGKTEKLLHKIKRWKIAKISVVIFKPIIDTRQTNIVKSRNGEYDQAITINSPFEIYDHLVDKNYQIVAIDEAQFFSNEIIEVVTTLNEIGTNVIISGLDTDFRAEPFGCIPQLLAIADVVNKLDAICNVCGSLAQRTQRLVNKNTNDNLVLIGDAEAYEARCKLHHSFLTKKHVTVKTKNFKEQVQGKTQLEHHHHHH” as the sequence, how does the “soluble on expression in E. coli” value read?
Its value is “not soluble”.

For “MSLHLNVAQQLYNAEITAGSLLLKESRAIAQLLLQSADETAWRQAIAIDNILQKTSPASAKRMSSLIRKRLELMPRELWSMIADGTTEVAIQSLMAAAIKHSRLLGDFMLKVLQRHYREFNPKILSREWDSFLAECAHIDPAVASWSQSTRKKVGQVAYRILSEAGYLDNTRSLKLQPVLIAPEVSKFLNSHDEKYILKCMEIAHEEGHHHHHH”, which “soluble on expression in E. coli” value is on record?
Its value is “soluble”.
